The term stoichiometry N denotes a count of units in the complex or per binding partner.

In assay [1] the target is His-tagged PrgU (Enterococcus faecalis (plasmid pCF10)). The assay is described as follows: GEMMA.
Assay [2] has the same target. The assay is described as follows: SEC-MALS. In general terms: SEC sorts molecules by how far they enter the pores of the column.

As for His-tagged PrgU (natural protein), the stoichiometry N in assay [1] and in assay [2] was 2 throughout.

Values taken from paper doi:10.1101/2020.07.06.190884.
